B1: TPR t1 (parent)
chain: GACCAAUCUGCCCUCAGAGCUCGAGAACAUCUUCGGAUGCAGAGGAGGCAGGCUUCGGUGGCGCGAUAGCGCCAACGUCCUCAACCUCCAAUGCAUCCCACCACAUGAUGAUGCCUGAAGAGCCUUGGUUUUUUG

Variants of: B1
Test: polymerase ribozyme fitness, log enrichment relative to wild type (log ratio); higher = more active; in vitro selection for triplet polymerase activity
Method in brief: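 Mutant libraries for each subunit of a heterodimeric triplet polymerase ribozyme were made by PCR and then transcribed. Each library underwent one round of in vitro selection in triplicate: annealing with a biotinylated primer, the partner subunit and triplets, frozen incubation at −7 °C, gel excision of extended constructs, streptavidin-bead capture and RT-PCR. Input and output libraries were Illumina-sequenced, and only genotypes with ≥10 input reads and ≥1 read per output were kept. Fitness is the logarithm, base 2, of genotype enrichment over wild-type enrichment, computed from inverse-variance-weighted replicate averages.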

| Variant | polymerase ribozyme fitness (log ratio) |
| --- | --- |
| C76U C82A G120A | 0.131 |
| C76A G110A | -1.79 |
| U78C A95C C123A | 0.0148 |
| G77C C97U U109A | -5.64 |
| A74U G113A | -1.11 |
| A74U G113U | -3.37 |
| C73U C115G U132A | -1.49 |
| C72U C123A U126G | -1.44 |
| G77A A95C | -0.839 |
| C73A C98A | -4.94 |
| C72G C97U G122A | -1.57 |
| A74G C123G | 1.31 |
| A74G C123U | 1.13 |
| C76U A90G C115A | -0.0334 |
| G77A U81A | -1.01 |
| C76A C115U U129A | -4.13 |
| C76A C85A | -0.928 |
| C73A U81G C88A U112G C115A U125A | -5.14 |
| A74U A83U A84C G120U G122A U125A | -1.84 |
| A74U U96A A100U G113U | -6.78 |
| C72G C104U | -0.348 |

| Variant | polymerase ribozyme fitness (log ratio) |
| --- | --- |
| A74U C85U C94A | -1.55 |
| U78C U92A | -3.1 |
| U78C G120A | 0.768 |
| A74C G93A | -0.578 |
| C79A C85A A119U | -5.64 |
| U78A G93A C97A A121C | -5.11 |
| C76A A119G | 0.169 |
| C76G U78A U81A C89G A119U | -3.52 |
| C72U C85U C104G U112A G122U U133G | -6.97 |
| C72A U129A | -1.32 |
| C76A C79G | -0.726 |
| U78C U112A A118U | 1.17 |
| C76U C97U | -0.795 |
| G77U C114G | -2.88 |
| C73U A119G | 1.13 |
| C73U A119U | -0.348 |
| G77A A83U A84C C86A C101U G117C | -6.46 |
| U78C U130G | -0.922 |
| C76A C123G | -0.164 |
| C72A U131A G135U | 0.0704 |
| C72A G135U | -0.828 |

| Variant | polymerase ribozyme fitness (log ratio) |
| --- | --- |
| C76A | -0.611 |
| C76U | -0.164 |
| C76G | -0.207 |
| A75U C85A U92C G113C | -3.69 |
| C73U U109C | -3.63 |
| C73U U109G | -4.33 |
| U78C U131C | -0.936 |
| G77C U87A G93C A105U C115A | -5.31 |
| U78A A100C | -1.08 |
| C73A U109C | -2.34 |
| G77A C101A | -1.18 |
| U78C U132C | -0.13 |
| C73U C102A | -1.58 |
| G77U G128C | -3.09 |
| C72G A90G G110U G135C | -2 |
| U78C U87A | 1.12 |
| U78C U87G | 0.287 |
| U78C U87C | 0.532 |
| C72U U112C | 1.19 |
| C72U U112A | 0.821 |
| C72U C86A | -0.584 |

| Variant | polymerase ribozyme fitness (log ratio) |
| --- | --- |
| C73A C104A U116G C124A | -1.19 |
| C73A C104A A108G U112A A118G G122U | -5.56 |
| C73A A74G | -0.555 |
| G77C C104A U116G G122A | -5.01 |
| C73U C102U U131C | -1.19 |
| U78C U126C U129C | -2.29 |
| U78C A91G G93U | -2.35 |
| U78A A95G C102A | -2.41 |
| C72G C101G | -1.33 |
| U78G C97A | -2.84 |
| U78G C97G | -4.29 |
| G77A A121U | 1.88 |
| C72A U96A U109G | -6.14 |
| U78G A111U U131A | -2.99 |
| C72U G93U | -1.56 |
| C72U G93A | -0.542 |
| C73G G113U | -2.74 |
| C72G C86G U92A A111G G128U U132C | -6.17 |
| U78G C86U U133A | -0.63 |
| U78G C85A G120A | -0.262 |

— the RNAGym collection of RNA variant scans (doi:10.1073/pnas.2313332121)
